According to publication PMC3176292, “Mutations in Protein-Binding Hot-Spots on the Hub Protein Smad3 Differentially Affect Its Protein Interactions and Smad3-Regulated Gene Expression” (PLoS ONE, 2011):
Positions count from the first letter of the chain named.

B1: Renilla luciferase-Smad3 D408H (natural protein, UniProt P84022 1-425, looked up)
chain: MSSILPFTPPIVKRLLGWKKGEQNGQEEKWCEKAVKSLVKKLKKTGQLDELEKAITTQNVNTKCITIPRSLDGRLQVSHRKGLPHVIYCRLWRWPDLHSHHELRAMELCEFAFNMKKDEVCVNPYHYQRVETPVLPPVLVPRHTEIPAEFPPLDDYSHSIPENTNFPAGIEPQSNIPETPPPGYLSEDGETSDHQMNHSMDAGSPNLSPNPMSPAHNNLDLQPVTYCEPAFWCSISYYELNQRVGETFHASQPSMTVDGFTDPSNSERFCLGLLSNVNRNAAVELTRRHIGRGVRLYYIGGEVFAECLSDSAIFVQSPNCNQRYGWHPATVCKIPPGCNLKIFNNQEFAALLAQSVNQGFEAVYQLTRMCTIRMSFVKGWGAEYRRQTVTSTPCWIELHLNGPLQWLHKVLTQMGSPSIRCSSVS
notes: Smad3; source: HEK-293, transfected together with constitutively active Alk5, in lysate
B2: Renilla luciferase-Smad3 R292A (natural protein, UniProt P84022 1-425, looked up)
chain: B1 chain with R292A, H408D
notes: as for B1
B3: Renilla luciferase-Smad3 Y238A (natural protein, UniProt P84022 1-425, looked up)
chain: B1 chain with Y238A, H408D
notes: as for B1
B4: Renilla luciferase-Smad3 R268A (natural protein, UniProt P84022 1-425, looked up)
chain: B1 chain with R268A, H408D
notes: as for B1
B5: Renilla luciferase-Smad3 R243A (natural protein, UniProt P84022 1-425, looked up)
chain: B1 chain with R243A, H408D
notes: as for B1
B6: Renilla luciferase-Smad3 Y384A (natural protein, UniProt P84022 1-425, looked up)
chain: B1 chain with Y384A, H408D
notes: as for B1

What was measured:
Flag-SARA, full length = molecular target: T1, Flag-SARA, full length (UniProt O95405 1-1425); experiment: co-IP; LUMIER: Renilla luciferase-Smad3 and Flag-tagged partner co-expressed with constitutively active Alk5 in HEK-293; Flag protein captured from cleared lysate (TNE: 10 mM Tris-HCl pH 7.8, 150 mM NaCl, 1 mM EDTA, 1% Igepal CA-630) on anti-Flag 96-well plates, 2 h at 4 °C; co-precipitated Renilla luciferase activity, TrxGA background subtracted, percent of wild-type Smad3; details: partners not purified
T1 construct: SARA; plasmid pCMV5b-Flag-SARA; also called SARA FL; source: HEK-293, transfected, in lysate
T1 sequence (looked up): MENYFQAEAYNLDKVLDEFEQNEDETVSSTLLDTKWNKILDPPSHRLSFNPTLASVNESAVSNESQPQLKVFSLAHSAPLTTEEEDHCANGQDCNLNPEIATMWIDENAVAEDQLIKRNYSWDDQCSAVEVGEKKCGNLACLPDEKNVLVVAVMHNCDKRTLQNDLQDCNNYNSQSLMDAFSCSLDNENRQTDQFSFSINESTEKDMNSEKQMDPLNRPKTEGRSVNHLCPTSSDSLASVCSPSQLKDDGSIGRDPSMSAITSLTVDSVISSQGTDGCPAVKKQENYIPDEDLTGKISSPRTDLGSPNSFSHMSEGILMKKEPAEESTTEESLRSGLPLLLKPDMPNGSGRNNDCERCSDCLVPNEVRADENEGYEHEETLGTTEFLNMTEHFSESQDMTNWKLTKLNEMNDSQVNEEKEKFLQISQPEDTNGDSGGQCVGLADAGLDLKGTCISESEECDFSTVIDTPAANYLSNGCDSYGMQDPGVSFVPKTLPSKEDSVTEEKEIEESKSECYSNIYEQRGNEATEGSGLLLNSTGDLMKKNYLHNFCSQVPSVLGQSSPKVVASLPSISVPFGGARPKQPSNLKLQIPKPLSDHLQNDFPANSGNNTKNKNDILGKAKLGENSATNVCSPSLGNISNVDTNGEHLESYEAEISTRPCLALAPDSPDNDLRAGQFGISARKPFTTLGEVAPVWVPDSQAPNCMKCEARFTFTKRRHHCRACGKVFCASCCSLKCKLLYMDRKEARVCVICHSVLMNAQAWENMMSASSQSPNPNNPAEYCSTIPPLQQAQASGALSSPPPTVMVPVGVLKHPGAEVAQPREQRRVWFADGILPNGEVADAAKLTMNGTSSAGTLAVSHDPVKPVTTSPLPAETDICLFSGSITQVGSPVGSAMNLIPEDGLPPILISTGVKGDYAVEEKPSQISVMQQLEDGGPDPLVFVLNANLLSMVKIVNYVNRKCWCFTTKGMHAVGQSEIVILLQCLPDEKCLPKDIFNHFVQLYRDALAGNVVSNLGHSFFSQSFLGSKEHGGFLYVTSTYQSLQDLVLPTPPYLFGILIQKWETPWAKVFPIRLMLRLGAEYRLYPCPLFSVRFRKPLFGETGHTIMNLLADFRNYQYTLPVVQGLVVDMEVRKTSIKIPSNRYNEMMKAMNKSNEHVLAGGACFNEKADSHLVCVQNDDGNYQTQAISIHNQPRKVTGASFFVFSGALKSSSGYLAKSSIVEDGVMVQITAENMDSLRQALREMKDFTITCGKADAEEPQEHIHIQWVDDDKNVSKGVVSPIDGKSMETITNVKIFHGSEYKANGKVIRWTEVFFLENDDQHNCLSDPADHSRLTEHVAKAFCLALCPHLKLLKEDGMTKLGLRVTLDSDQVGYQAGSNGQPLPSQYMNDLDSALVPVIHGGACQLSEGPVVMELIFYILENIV

[1] = molecular target: T2, Flag-SkiW274E, full length (UniProt P12755 1-728, W274E); experiment: as above; details: partners not purified
T2 construct: plasmid pCMV5b-Flag-SkiW274E (from K. Luo); also called SkiW274E FL; SKI274E; source: HEK-293, transfected, in lysate
T2 sequence (looked up): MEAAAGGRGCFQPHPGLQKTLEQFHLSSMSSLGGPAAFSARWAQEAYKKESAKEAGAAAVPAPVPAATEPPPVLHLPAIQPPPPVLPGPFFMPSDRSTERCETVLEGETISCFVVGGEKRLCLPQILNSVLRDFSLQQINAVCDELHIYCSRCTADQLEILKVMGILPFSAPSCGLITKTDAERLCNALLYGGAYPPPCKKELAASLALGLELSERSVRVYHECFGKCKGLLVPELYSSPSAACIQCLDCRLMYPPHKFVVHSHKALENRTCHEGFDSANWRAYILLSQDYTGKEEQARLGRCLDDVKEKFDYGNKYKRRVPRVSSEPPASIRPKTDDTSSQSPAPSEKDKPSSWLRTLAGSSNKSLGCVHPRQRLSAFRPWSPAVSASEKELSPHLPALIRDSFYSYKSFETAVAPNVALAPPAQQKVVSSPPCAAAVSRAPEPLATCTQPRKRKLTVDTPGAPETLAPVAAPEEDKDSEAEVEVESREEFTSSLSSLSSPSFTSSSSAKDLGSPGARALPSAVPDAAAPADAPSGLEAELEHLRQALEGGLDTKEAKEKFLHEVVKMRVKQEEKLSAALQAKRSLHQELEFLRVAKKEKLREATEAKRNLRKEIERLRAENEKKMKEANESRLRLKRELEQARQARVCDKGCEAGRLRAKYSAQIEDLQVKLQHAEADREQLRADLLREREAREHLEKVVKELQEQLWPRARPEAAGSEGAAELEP

| Binder | percent binding relative to wild-type Smad3 (Flag-SARA, full length) | percent binding relative to wild-type Smad3 [1] |
| --- | --- | --- |
| B1 | 168% | 31% |
| B2 | 120% | 59% |
| B3 | 162% | 44% |
| B4 | 159% | 62% |
| B5 | 181% | 72% |
| B6 | 178% | 53% |
